# According to the PETadex activity labels (doi:10.1016/j.bbrc.2024.150833):
# B1: unnamed (protein)
# chain: MTDVEIALSTGRVKGTDLGDVVRYYGIPYAEDPVGDLRFAAPVRREPWPGVRDATRPAATAQRLRFDPDPAIPEPIVAGTDILHVDVWAPTEGAGHPVLVWIHGGGWESGSSHQPWFVGTAFARAGIVVVSVGYRLGVEGFTAFPDAPDNRGVRDWIMALEWVRDEIAAFGGDPGQVTVSGQSAGGGAVLCLLASPLAAGLFHRGIASSPAVLRSPAAQAPKGTTAAGLAAGGRGAVDEFHRRLRKDNPFLMPFRPTVGDDTVPVPPLEGIGSGPGLDLPLLIGSTATEFEGVVRALPGAALVPGAAMILRSQELPTTGLRALARQSAGKSLRRAVGAVVDAATIHSTVVRAAETRVAAGAPTWVYDFRWSEGRGAVHCADLPFFWSVPEAANVRAYLGADAPPGLVDAMHRSWVDFVRSGDPGSPPYAPPGRRVQVWDEPPAVVEDGLADVRAVWWPAGGS
# Substrate: pNPB
# Experiment: Proxy for plastic degradation [Absorbance @ 405nm]
protein,measurement,setting,value
B1,Proxy for plastic degradation,pH 5,10.3 U/mg
same,Proxy for plastic degradation,pH 5.5,15.4 U/mg
same,Proxy for plastic degradation,pH 6,41.1 U/mg
same,Proxy for plastic degradation,pH 6.5,61.7 U/mg
same,Proxy for plastic degradation,pH 7,72 U/mg
same,Proxy for plastic degradation,pH 7.5,77.1 U/mg
same,Proxy for plastic degradation,"pH 8, 10 °C",36 U/mg
same,Proxy for plastic degradation,"pH 8, 20 °C",46.3 U/mg
same,Proxy for plastic degradation,"pH 8, 25 °C",77.1 U/mg
same,Proxy for plastic degradation,"pH 8, 30 °C",92.6 U/mg
same,Proxy for plastic degradation,"pH 8, 37 °C",103 U/mg
same,Proxy for plastic degradation,"pH 8, 40 °C",84.9 U/mg
same,Proxy for plastic degradation,"pH 8, 50 °C",59.7 U/mg
same,Proxy for plastic degradation,"pH 8, 60 °C",20.6 U/mg
same,Proxy for plastic degradation,"pH 8, 70 °C",10.3 U/mg
same,Proxy for plastic degradation,pH 8.5,92.6 U/mg
same,Proxy for plastic degradation,pH 9,87.4 U/mg
